T1: P-FtsA, phosphorylated form of FtsA of Deinococcus radiodurans, purified recombinant (Deinococcus radiodurans, UniProt Q9RWN6 1-517, phosphorylated by co-expressed RqkA (checked with anti-phospho-Ser/Thr antibodies); sites reported for FtsA: threonine 272, serine 370 and serine 386)
T1 construct: FtsA, cell division protein of Deinococcus radiodurans R1; same plasmid as m3, co-expressed with the kinase RqkA; also called phosphorylated FtsA
T1 sequence (looked up): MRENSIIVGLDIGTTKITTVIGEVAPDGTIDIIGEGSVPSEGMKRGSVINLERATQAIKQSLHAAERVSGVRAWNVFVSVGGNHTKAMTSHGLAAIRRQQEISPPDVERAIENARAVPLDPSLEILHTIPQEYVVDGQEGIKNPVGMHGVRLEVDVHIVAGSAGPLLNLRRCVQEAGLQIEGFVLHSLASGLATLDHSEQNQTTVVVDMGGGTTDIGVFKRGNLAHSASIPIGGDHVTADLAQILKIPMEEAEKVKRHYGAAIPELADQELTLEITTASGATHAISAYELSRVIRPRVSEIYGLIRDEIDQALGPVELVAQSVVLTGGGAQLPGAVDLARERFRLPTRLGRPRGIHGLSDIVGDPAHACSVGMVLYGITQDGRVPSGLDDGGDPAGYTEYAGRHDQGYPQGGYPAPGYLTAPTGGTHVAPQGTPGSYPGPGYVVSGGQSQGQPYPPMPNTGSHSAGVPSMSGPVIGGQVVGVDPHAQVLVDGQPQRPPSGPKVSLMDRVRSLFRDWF

B1: FtsZ of Deinococcus radiodurans, purified recombinant (natural protein, UniProt Q9RWN5 1-371, looked up)
chain: MQAARIRVIGLGGAGNNAVNRMIESGLEGVEFIAGNTDAQVLAKSHAEVRIQLGDRLTRGLGAGADPKVGEEAAVEDRDRIKEYLDDTDMLFITAGMGGGTGTGSAPVVAEIAREMGILTVAIVTRPFKFEGPKRMRVAEEGMSKLADRVDGMIVVNNEKLLTAVDKKVSFREAFLIADRVLYYGVKGISDVINVEGMINLDFADVRNLLANSGTVLMGIGAGRGDKMAEEAAMSAIHSPLLERGIEGARRILVNVTGGYDLSMTDANEIVEKIREATGFDDPDILFGITPDEAAGDEVRVTVIATGFGDNTYAAPLGGVVSSGRGGYDQGGYGSGLVRPVRGGQGGLGGGSSYDPKDYDIPAFLRNVGGQ
notes: FtsZ, cell division protein of Deinococcus radiodurans R1; also called FZ; unphosphorylated FtsZ; source: E. coli BL21(DE3) pLysS from pFTSZ, purified (nickel-chelating Sepharose, Ni-NTA agarose)
B2: FtsA of Deinococcus radiodurans, purified recombinant (natural protein, UniProt Q9RWN6 1-517, looked up)
chain: MRENSIIVGLDIGTTKITTVIGEVAPDGTIDIIGEGSVPSEGMKRGSVINLERATQAIKQSLHAAERVSGVRAWNVFVSVGGNHTKAMTSHGLAAIRRQQEISPPDVERAIENARAVPLDPSLEILHTIPQEYVVDGQEGIKNPVGMHGVRLEVDVHIVAGSAGPLLNLRRCVQEAGLQIEGFVLHSLASGLATLDHSEQNQTTVVVDMGGGTTDIGVFKRGNLAHSASIPIGGDHVTADLAQILKIPMEEAEKVKRHYGAAIPELADQELTLEITTASGATHAISAYELSRVIRPRVSEIYGLIRDEIDQALGPVELVAQSVVLTGGGAQLPGAVDLARERFRLPTRLGRPRGIHGLSDIVGDPAHACSVGMVLYGITQDGRVPSGLDDGGDPAGYTEYAGRHDQGYPQGGYPAPGYLTAPTGGTHVAPQGTPGSYPGPGYVVSGGQSQGQPYPPMPNTGSHSAGVPSMSGPVIGGQVVGVDPHAQVLVDGQPQRPPSGPKVSLMDRVRSLFRDWF

Assays:
[1] = target: B2; test: SPR; reverse manner: FtsZ or P-FtsZ (20 µM) immobilised on a bare gold sensor chip; FtsA or P-FtsA (4 to 20 µM) in the mobile phase; conditions: both partners purified
[2] = target: T1, P-FtsA, phosphorylated form of FtsA of …; test: as above; conditions: both partners purified
[3] = target: B2; test: SPR; FtsA or P-FtsA (25 µM) immobilised on a bare gold sensor chip by EDC-NHS chemistry at 20°C, about 200 response units; running buffer 20 mM Tris pH 7.6; FtsZ or P-FtsZ (6 to 30 µM) with 1 mM GTP and 1 mM MgCl2 in the mobile phase; AutoLab Esprit; conditions: both partners purified
[4] = target: T1, P-FtsA, phosphorylated form of FtsA of …; test: as above; conditions: both partners purified
[5] = target: B1; test: cell-based or functional assay

Binder	Kd [1] [µM]	Kd [2] [µM]	Kd [3] [µM]	Kd [4] [µM]	stimulation of the GTPase activity of 5 µM FtsZ by 5 µM FtsA (malachite green assay; TLC of [32P]GTP to [32P]GDP) [5] [fold]
B1	7.93	5.17	6.83	8.35	
P-FtsZ, phosphorylated form of FtsZ of Deinococcus radiodurans, purified recombinant (natural protein, UniProt Q9RWN5 1-371, looked up, phosphorylated by co-expressed RqkA (checked with anti-phospho-Ser/Thr antibodies); sites mapped on FtsZ phosphorylated by RqkA in vitro: serine 235 and serine 335, FtsZ, cell division protein of Deinococcus radiodurans R1; same plasmid as m1, co-expressed with the kinase RqkA; also called PFZ; phosphorylated FtsZ) MQAARIRVIGLGGAGNNAVNRMIESGLEGVEFIAGNTDAQVLAKSHAEVRIQLGDRLTRGLGAGADPKVGEEAAVEDRDRIKEYLDDTDMLFITAGMGGGTGTGSAPVVAEIAREMGILTVAIVTRPFKFEGPKRMRVAEEGMSKLADRVDGMIVVNNEKLLTAVDKKVSFREAFLIADRVLYYGVKGISDVINVEGMINLDFADVRNLLANSGTVLMGIGAGRGDKMAEEAAMSAIHSPLLERGIEGARRILVNVTGGYDLSMTDANEIVEKIREATGFDDPDILFGITPDEAAGDEVRVTVIATGFGDNTYAAPLGGVVSSGRGGYDQGGYGSGLVRPVRGGQGGLGGGSSYDPKDYDIPAFLRNVGGQ	65.2	58.3	10.3	15	
B2					~1.5

Reference: article PMC6052341, “Phosphorylation of FtsZ and FtsA by a DNA Damage-Responsive Ser/Thr Protein Kinase Affects Their Functional Interactions in Deinococcus radiodurans” (mSphere, 2018)
